Experiments:
[1] = molecular target: SARS-CoV-2 RBD (residues 319–541), Wuhan-Hu-1 (SARS-CoV-2) (UniProt P0DTC2); assay: BLI
ACE2-COMP (human | rat) = ACE2-COMP (human | rat) (UniProt Q9BYF1); assay: negative stain electron microscopy

ACE2-COMP (from UniProt Q9BYF1 19-615; P35444 29-73)
Kd [1]: < 0.025 nM
percent of bound ACE2 still attached after more than 8 h of dissociation [1]: 90%
stoichiometry N (ACE2-COMP (human | rat)): 5

Reference: PMC11862925
